This is an account of results in paper PMC3800017.

The term Kd denotes the constant that tells how readily two partners part at equilibrium. Low values mean tighter binding, high ones weaker binding.

B1: Insulin E1 (dsDNA)
DNA 1: AGCCATCTGCCGACCC
DNA 2: GGGTCGGCAGATGGCT
B2: Insulin A3 (dsDNA)
DNA 1: AGACTCTAATGACCCG
DNA 2: CGGGTCATTAGAGTCT
B3: IAPP A2 (dsDNA)
DNA 1: ATGAGTTAATGTAATA
DNA 2: TATTACATTAACTCAT
B4: IAPP A1 (dsDNA)
DNA 1: GGAAATTAATGACAGA
DNA 2: TCTGTCATTAATTTCC
B5: Insulin A1 (dsDNA)
DNA 1: AGGCCCTAATGGGCCA
DNA 2: TGGCCCATTAGGGCCT

The target of this data set is Pdx1 homeodomain (Pdx1-HD) (Homo sapiens, UniProt P52945 146-206). Put plainly: ITC. For orientation: ITC needs no label: the signal is the heat of the interaction.
Chain of Pdx1 homeodomain (Pdx1-HD) (P52945 146-206): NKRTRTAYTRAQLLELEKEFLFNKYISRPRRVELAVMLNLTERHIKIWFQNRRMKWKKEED
B1 displayed a Kd of 1300 ± 300 nM.

B2 had a Kd of 4 ± 1 nM.

As for B3, the affinity, expressed as Kd, was 27 ± 7 nM. This Kd is about 6.8-fold higher than that of the molecule before.

The molecule B4 gave a Kd of 22 ± 5 nM.

The molecule B5 had a Kd of 7 ± 2 nM.
